Percent inhibition of ACE2 binding data for one substance are collected here from PMC9418005.

The test deals with Omicron BA.1.1 spike trimer (includes the R346K mutation) (SARS-CoV-2) (UniProt P0DTC2). As to the kind of experiment: Luminex spike-ACE2 surrogate neutralization assay.

The substance P5C3 LS monoclonal antibody yielded a percent inhibition of ACE2 binding at 20 µg ml^−1 of 100%.
